B3: α-actin (endogenous T. vaginalis) (natural protein)
chain: not shown
notes: T. vaginalis α-actin detected by anti-α-actin antibody; other actin genes of the parasite may be detected too; also called F-actin; TvActin; source: endogenous, T. vaginalis TH17 lysate

Columns and labels:
[1] = target: T1, tagless recombinant TvActin (rTvActin) (Trichomonas vaginalis, UniProt P90623 1-376); assay: TIRF microscopy; 6 μM G-rTvActin (10% Alexa Fluor 488-labelled) polymerising in TIRF buffer on NEM-myosin II-coated flow cell with 300 nM His-TvFACPα; Alexa Fluor 555-His-TvFACPα seen at the barbed end; settings: both partners purified
T1 construct: T. vaginalis α-actin (TvActin), TVAG_337240; Monomeric (G-) in G-buffer, polymerised (F-) in F-buffer; the assay's format tells which; 10% pyrene-labelled in the pyrene assay and 10% Alexa Fluor 488-labelled in TIRF microscopy; also called G-rTvActin; F-rTvActin; source: E. coli BL21, GST-TvActin cleaved with thrombin, purified (heparin-Sepharose, Sephacryl S-300 gel filtration)

[2] = target: B3; assay: co-sedimentation; actin fractionation of trophozoite lysates (Cytoskeleton Inc. kit): 100,000 × g for 1 h, F-actin and associated proteins in the pellet; Western blotting; nontransgenic and transgenic TH17, flagellate and amoeboid forms, DMSO or TBB, T1 isolate; settings: partners not purified
HA-TvFACPα(S2A) = target: T2, HA-TvFACPα(S2A) (Trichomonas vaginalis, UniProt A2FE30 1-261, S2A); assay: co-IP; anti-HA agarose beads on lysates of TH17 trophozoites overexpressing HA-TvFACPα or its mutants (1% Triton X-100, 5 mM EDTA in TBS, 4°C overnight); Western blotting for α-actin and α-actinin; also after DMSO or TBB (CKII inhibitor) treatment; settings: partners not purified
T2 construct: T. vaginalis F-actin capping protein subunit α (TvFACPα), TVAG_470230; source: transgenic T. vaginalis TH17 trophozoites (Flp-HA-TvFACPα(S2A) plasmid), overexpressed, in lysate
T2 sequence: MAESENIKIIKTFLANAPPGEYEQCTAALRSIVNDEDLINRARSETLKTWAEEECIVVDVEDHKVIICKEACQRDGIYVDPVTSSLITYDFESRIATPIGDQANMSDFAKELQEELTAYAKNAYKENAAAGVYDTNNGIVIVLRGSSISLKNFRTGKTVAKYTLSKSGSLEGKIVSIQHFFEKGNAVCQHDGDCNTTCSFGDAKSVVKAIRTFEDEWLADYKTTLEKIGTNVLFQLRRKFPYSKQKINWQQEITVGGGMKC

B1: Alexa Fluor 555-His-TvFACPα (natural protein)
chain: MSESENIKIIKTFLANAPPGEYEQCTAALRSIVNDEDLINRARSETLKTWAEEECIVVDVEDHKVIICKEACQRDGIYVDPVTSSLITYDFESRIATPIGDQANMSDFAKELQEELTAYAKNAYKENAAAGVYDTNNGIVIVLRGSSISLKNFRTGKTVAKYTLSKSGSLEGKIVSIQHFFEKGNAVCQHDGDCNTTCSFGDAKSVVKAIRTFEDEWLADYKTTLEKIGTNVLFQLRRKFPYSKQKINWQQEITVGGGMKC
modifications: Alexa Fluor 555 maleimide label (residue not stated)
notes: T. vaginalis F-actin capping protein subunit α (TvFACPα), TVAG_470230, 267 amino acids; m6 after dye labelling; source: recombinant from pET28-His-TvFACPα, purified, labelled with Alexa Fluor 555 maleimide
B1: binds [1].

B2: HA-TvFACPα (natural protein)
chain: MSESENIKIIKTFLANAPPGEYEQCTAALRSIVNDEDLINRARSETLKTWAEEECIVVDVEDHKVIICKEACQRDGIYVDPVTSSLITYDFESRIATPIGDQANMSDFAKELQEELTAYAKNAYKENAAAGVYDTNNGIVIVLRGSSISLKNFRTGKTVAKYTLSKSGSLEGKIVSIQHFFEKGNAVCQHDGDCNTTCSFGDAKSVVKAIRTFEDEWLADYKTTLEKIGTNVLFQLRRKFPYSKQKINWQQEITVGGGMKC
notes: T. vaginalis F-actin capping protein subunit α (TvFACPα), TVAG_470230, 267 amino acids; source: transgenic T. vaginalis TH17 trophozoites (Flp-HA-TvFACPα plasmid), overexpressed, in lysate
B2 was tested, and the “fold change of cosedimented level against endogenous TvFACPα in the nontransfectant” value [2] was about 2 fold.

For B3, the “fold change of coimmunoprecipitated α-actin signal against HA-TvFACPα” value (HA-TvFACPα(S2A)) was 3 fold.

— paper PMC10434240, “An Atypical F-Actin Capping Protein Modulates Cytoskeleton Behaviors Crucial for Trichomonas vaginalis Colonization” (Microbiology Spectrum, 2023)
